Laboratory results as given in paper PMC5575007, “Intermolecular base stacking mediates RNA-RNA interaction in a crystal structure of the RNA chaperone Hfq”.

Columns and labels:
[1] = molecular target: T1, Hfq102 (Escherichia coli, UniProt P0A6X3 1-102); assay: AUC; s = 4.5S alone; with OxyS segment ternary s = 5.9S; ITC/FA: 0.25 M NaCl, 20 mM Hepes/NaOH pH 8.0, 5 mM MgCl2, 2% glycerol, 25 C (FA plus 1 g/l BSA); EMSA: 0.25 M NaCl, 50 mM Tris pH 7.5, 10% glycerol, 25 C, 20 nM RNA, 2-200 nM Hfq; conditions: protein: recombinant; tags: 6xHis-SUMO tag cleaved (SenP2); chain copies: 6; label: 3' Cy3 or Cy5
[2] = molecular target: T2, Hfq72 (Escherichia coli, UniProt P0A6X3 1-72); assay: fluorescence anisotropy; first of two events; 1 g/l BSA; ITC/FA: 0.25 M NaCl, 20 mM Hepes/NaOH pH 8.0, 5 mM MgCl2, 2% glycerol, 25 C (FA plus 1 g/l BSA); EMSA: 0.25 M NaCl, 50 mM Tris pH 7.5, 10% glycerol, 25 C, 20 nM RNA, 2-200 nM Hfq; conditions: protein: recombinant; tags: 6xHis-SUMO tag cleaved (SenP2); chain copies: 6; label: 3'-ATTO488
[3] = molecular target: T2, Hfq72; assay: X-ray crystallography; 2.5 A; distal face; (Hfq6:A18)2 dimer by N-site base stacking; pH 4.2; ITC/FA: 0.25 M NaCl, 20 mM Hepes/NaOH pH 8.0, 5 mM MgCl2, 2% glycerol, 25 C (FA plus 1 g/l BSA); EMSA: 0.25 M NaCl, 50 mM Tris pH 7.5, 10% glycerol, 25 C, 20 nM RNA, 2-200 nM Hfq; conditions: protein: recombinant; tags: 6xHis-SUMO tag cleaved (SenP2); chain copies: 6
[4] = molecular target: T2, Hfq72; assay: ITC; first of two events; ITC/FA: 0.25 M NaCl, 20 mM Hepes/NaOH pH 8.0, 5 mM MgCl2, 2% glycerol, 25 C (FA plus 1 g/l BSA); EMSA: 0.25 M NaCl, 50 mM Tris pH 7.5, 10% glycerol, 25 C, 20 nM RNA, 2-200 nM Hfq; conditions: protein: recombinant; tags: 6xHis-SUMO tag cleaved (SenP2); chain copies: 6; label: none (AUC, ITC); 5'-32P (EMSA)
[5] = molecular target: T3, Hfq102R16A,R17A (Escherichia coli, UniProt P0A6X3 1-102, R16A;R17A); assay: EMSA; two shifted bands; ITC/FA: 0.25 M NaCl, 20 mM Hepes/NaOH pH 8.0, 5 mM MgCl2, 2% glycerol, 25 C (FA plus 1 g/l BSA); EMSA: 0.25 M NaCl, 50 mM Tris pH 7.5, 10% glycerol, 25 C, 20 nM RNA, 2-200 nM Hfq; conditions: protein: recombinant; tags: 6xHis-SUMO tag cleaved (SenP2); chain copies: 6; label: none (AUC, ITC); 5'-32P (EMSA)
[6] = molecular target: T3, Hfq102R16A,R17A; assay: EMSA; significant supershift; ITC/FA: 0.25 M NaCl, 20 mM Hepes/NaOH pH 8.0, 5 mM MgCl2, 2% glycerol, 25 C (FA plus 1 g/l BSA); EMSA: 0.25 M NaCl, 50 mM Tris pH 7.5, 10% glycerol, 25 C, 20 nM RNA, 2-200 nM Hfq; conditions: protein: recombinant; tags: 6xHis-SUMO tag cleaved (SenP2); chain copies: 6; label: 5'-32P
[7] = molecular target: T1, Hfq102; assay: AUC; s = 4.5S alone; with fhlA segment ternary s = 5.9S; ITC/FA: 0.25 M NaCl, 20 mM Hepes/NaOH pH 8.0, 5 mM MgCl2, 2% glycerol, 25 C (FA plus 1 g/l BSA); EMSA: 0.25 M NaCl, 50 mM Tris pH 7.5, 10% glycerol, 25 C, 20 nM RNA, 2-200 nM Hfq; conditions: protein: recombinant; tags: 6xHis-SUMO tag cleaved (SenP2); chain copies: 6; label: 3' Cy5 or Cy3

## CUAAUAAAAUUCUACCUAGAAGAACAAAAUGUC (ssRNA) [fhlA (ARN)X segment]
[1]
  binding result: binds

## AAAAAAAAAAAAAAAAAAAA (ssRNA) [A20-ATTO488]
[2]
  Kd: 0.4 nM

## AAAAAAAAAAAAAAAAAA (ssRNA) [A18 (ordered part of A30)]
[3]
  binding result: binds

## AAAAAAAAAAAAAAAAAAAA (ssRNA) [A20]
[4]
  Kd: 1.3 nM
[5]
  binding result: binds

## AAGAAGAAGAAGAAGAAGAA (ssRNA) [AAG]
[6]
  binding result: binds

## UCAACUCGAAUAACUAAAGCCAACGUGAAC (ssRNA) [OxyS (ARN)X segment]
[7]
  binding result: binds
